# Molecular target: spike protein of SARS-CoV (SARS-CoV, UniProt P59594 14-1255)
# Assay: cell-based or functional assay
binder,measurement,value
"4-66 antibody (antibody, V domains shown) VH: EVQLVESGGGLVQPGGSLRLSCAASGIIVSRNYMTWVRQAPGKGLEWVSVIYSGGTTYYADSVKGRFTTSRDDSKNTLYLQMNSLRGDDTAVYYCARDPPHRRGSYWGQGTLVTVSS VL: DILMTQSPSSLSASVGDRVTITCQASQDINKYLNWYQQKPGKAPKLLIYDASNLETGVPSRFSGSGSGTDFSFTISSLQPEDVATYYCQQSDNLPPTFGQGTNVEIK","IC50, neutralization",0.55 µg/mL

# Reference: patent publication US20260139035A1 (NATIONAL UNIVERSITY CORPORATION KUMAMOTO UNIVERSITY, published 2026)
